Data reported in patent US20180280504A1, “GLYCAN-INTERACTING COMPOUNDS AND METHODS OF USE” (SIAMAB THERAPEUTICS, INC., priority 2014, published 2018).
Changes are numbered by the printed parent chain. Names and notes keep the numbering of the source. Values joined by “and” are separate entries in the source; they are usually repeats but may differ in a detail not shown here. Equal entries are not always repeated. Where two headings read alike, the source gives them in different places.

How the values were obtained:
[1] = system: ST6GalNAc 1 transfected MDA-MB-231 cells (MDA-STn+); experiment: Flow cytometry-based analysis of antibody binding, STn+ cells; design: species or system human; details: for EC50, flow cytometry binding to cell-associated STn: ST6GalNAc 1 transfected MDA-MB-231 cells, APC anti-mouse IgG
Description: Flow cytometry-based analysis is carried out to elucidate the curve-dose response for binding of antibodies to cell surface antigens. For these analyses, three cell lines are employed.
MDA-MB-231 cells are human breast cancer cells. They are grown in Earle's Minimum Essential Medium supplemented with 10% fetal calf serum (FCS), 100 μg/ml penicillin, 100 UI/ml streptomycin and 45 μg/ml gentamycin. MCF-7 cells are also human breast cancer cells and are grown under the same conditions as MDA-MB-231 cells. Stably transfected versions of MDA-MB-231 and MCF-7 cells (clone TAH3.P10 for MDA-MB-231 cells and clone A12.1 for MCF-7 cells) that over express GalNAc α2,6-sialyltransferase (ST6GalNAc 1,) are also cultured under the same conditions with the exception of an added 1 mg/ml of G418 to support cells expressing the transgene. ST6GalNAc 1 is an enzme capable of sialylating GalNAc. As a result of over expression, transfected cells express high levels of Neu5Ac-STn (see Julien, S. et al., Glycoconjugate journal. 2001. 18, 883-93; the contents of which are herein incorporated by reference in their entirety). E3 cells are murine breast cancer cells. They are cultured in Dulbecco's E4 medium with 10% FCS. Stably transfected versions of E3 cells expressing high levels of Neu5Gc-STn (E3-STn) are cultured with 600 μg/ml of G418 and 200 μg/ml hygromycin. During growth and maintenance of experimental cells, trypsin is not used for cell passaging.
For analysis, cells are harvested using StemPro Accutase (Life Technologies, Carlsbad, Calif.) and washed with PBS comprising 5% FBS before pelleting by light centrifugation. Cell numbers and viability are determined by trypan blue dye exclusion analysis and cell concentrations are adjusted to 5×10^6 cells/ml in PBS with 5% FBS. 50 μl of cells are added to each well of an assay plate. Cells are combined with 50 μl solutions of antibody being analyzed or control antibodies and incubated for 1 hour at 4° C. Cells are washed and pelleted twice with PBS with 5% FBS before being treated with 100 μl of PBS with 5% FBS comprising a 1:1,500 dilution of anti-mouse IgG (Southern Biotech, Birmingham, Ala.,) conjugated to allophycocyanin (APC). Cells are incubated for 30 min at 4° C. before washing and resuspending in 200 μl of propidium iodide (PI) diluted 1:1000 in PBS with 5% FBS. Treated cells are then subjects to flow cytometry analysis and 10,000 events are acquired for each sample.

[2] = Glycan array, AcSTn; assay type: binding; details: for Glycan Array AcSTn: summary table
Description: (§1) Optimized glycan arrays comprise 71 chemically synthesized and well-defined glycans, most of which comprise Neu5Ac and Neu5Gc glycan pairs.
(§2) 300 ml of epoxy blocking buffer is prepared by combining 15 ml of 2 M Tris buffer (pH 8) with 0.9 ml of 16.6 M ethanolamine and 284.1 ml of distilled water. The solution was brought to a final pH of 9.0 with HCl. The solution is filtered using a […] nitrocellulose membrane. The epoxy buffer solution as well as 1 L of distilled water are pre-warmed to 50° C. Glass slides are arranged in a slide holder and quickly submerged in a staining tub with the warmed epoxy blocking buffer. Slides are incubated in the epoxy blocking buffer for 1 hour at 50° C. with periodic shaking to deactivate epoxy binding sites. Next, slides are rinsed and blocked with PBS with 1% OVA at 25° C. for one hour. Serum samples with polyclonal antibodies (1:1000) or purified monoclonal antibodies (1 ug/mL), are diluted in PBS with 1% OVA and added to the glycan array for one hour at 25° C. After extensive washing, binding of antibodies are detected by incubating glycan microarray slides with Cy3-conjugated anti-mouse IgG (Jackson Immunoresearch, West Grove, Pa.) for one hour. Slides are then washed extensively, dried and scanned with a Genepix 4000B scanner (Laser at 100%; gain at 350; 10 μm pixels). Raw data from scanned images are extracted using the Genepix software and analysis of raw data is carried out.

[3] = Glycan array, GcSTn; assay type: binding; details: for Glycan Array GcSTn: summary table
Description: as §1, §2

[4] = Glycan array STn specificity and anti-STn antibody group assignment; assay type: binding; design: key to Group (anti-STn antibody group): Group 1: antibodies capable of binding AcSTn and GcSTn; Group 2: ability to bind STn as well as some related structures that include an O-linkage to serine or threonine; Group 3: antibodies capable of binding STn, but may also bind a broader set of related structures; Group 4: capable of binding to both AcSTn and GcSTn as well as the un-sialylated Tn antigen; details: for Group (anti-STn antibody group): assigned from flow cytometry and glycan array analysis; for Glycan Array STn Specificity: summary table
Description: as §2
Based on characterization data, anti-STn antibodies developed from Group 6 and Group 8 mice were categorized by anti-STn group number. In some cases, antibodies were assigned to Group 1. Group 1 antibodies according to the invention are antibodies capable of binding AcSTn and GcSTn. Such antibodies may have the ability to associate with a wider range of STn structures. The large oval in FIG. 1A indicates the portion of STn recognized by Group 1 antibodies. Antibodies were assigned to Group 2 based on their ability to bind STn as well as some related structures that include an O-linkage to serine or threonine. The large oval in FIG. 1B indicates the portion of STn recognized by Group 2 antibodies. In some cases, Group 2 antibodies may bind to glycans comprising a sialylated galactose residue. Some Group 2 antibodies preferably bind to structures with AcSTn over structures with GcSTn. Further anti-STn antibodies were assigned to Group 3. Group 3 antibodies are antibodies capable of binding STn, but may also bind a broader set of related structures. […] The large oval in FIG. 1C indicates the portion of STn recognized by Group 3 antibodies. Finally, some anti-STn antibodies were assigned to Group 4. Group 4 antibodies are capable of binding to both AcSTn and GcSTn as well as the un-sialylated Tn antigen, and therefore have broader specificity. The large oval in FIG. 1D indicates the portion of STn recognized by Group 4 antibodies. […] Also listed in the Table is the antibody Isotype for each antibody as determined by the IsoStrip mouse monoclonal antibody isotyping kit (Roche Diagnostics GmbH, Manheim, Germany).

[5] = STn expressed on MDA cells, based on mean fluorescence intensity of APC, #1, #2, #3 = lots, nM, read-out: EC50 value
[6] = summary table, unit not printed (same values in nM), read-out: Flow cytometry (EC50) MDA-STn+
[7] = glycan microarray, Cy3 anti-mouse IgG

B1: 10A5: anti-STn mouse monoclonal, IgG2c κ, from mouse #4406; VH SEQ ID NO: 6, VL SEQ ID NO: 7 (antibody, V domains shown)
VH: QVQLKESGPGLVAPSQSLSITCTVSGFSLTSYGVSWVRQPPGKGLEWLGVIWGDGSTNYHSSLISRLSISKDNSKSQVFLKLNSLQTDDTATYYCARAFVYWGQGTLVTVSA
VL: QIVLTQSPAIMSASPGEKVTMTCSASSSVSYIHWYQQKSGTSPKRWIYDTSKLASGVPARFSGSGSGTSYSLTISSMEAEDAATYYCQQWSSNPPMLTFGAGTKLELK
With B1 the “EC50, flow cytometry binding to cell-associated STn” value (shortened to “EC50, flow cytometry binding”) [1] was 3.62 nM and 5.57 nM, the EC50 [1, 5] was 5.57 nM and the EC50 [1, 6] was 5.57 nM. The “Glycan Array AcSTn” value [2] was 96%, the “Glycan Array GcSTn” value [3] was 1% and the “Group (anti-STn antibody group)” value [4] was “Group 2”. The “Glycan Array STn Specificity” value [4] was 97%.

B2: 2D4: anti-STn mouse monoclonal, IgG2b κ, from mouse #4407; VH SEQ ID NO: 10, VL SEQ ID NO: 11 (antibody, V domains shown)
VH: B1 VH with K5Q, T30I, S35N, H60Q, S62A, S68I, A96T, R97K, A98G, V100A
VL: QIVLTQSPAIMSASPGEKVTMTCSASSSVSYMHWFQQKSGTSPKRWIYDTSKLASGVPARFSGSGSGTSYSLTISSMEAEDAATYYCQQWSSNLLTFGAGTKLELK
With B2 the “EC50, flow cytometry binding” value [1] was 1.41 nM, the “EC50, flow cytometry binding” value ([1]; listed as 2D4-1B4) was 1.19 nM and the EC50 ([1]; STn expressed on MDA cells, based on mean fluorescence intensity of APC, #1, #2, #3 = lots, nM, listed as 2D4#1, read-out: EC50 value) was 2.23 nM. The EC50 ([1]; STn expressed on MDA cells, based on mean fluorescence intensity of APC, #1, #2, #3 = lots, nM, listed as 2D4#2, read-out: EC50 value) was 1.41 nM, the EC50 [1, 6] was 1.41 nM and the “Glycan Array AcSTn” value [2] was 88%. For the same molecule, the “Glycan Array GcSTn” value [3] was 1%, the “Group (anti-STn antibody group)” value [4] was “Group 2” and the “Glycan Array STn Specificity” value [4] was 89%.

B3: 7G9: anti-STn mouse monoclonal, IgG2b κ, from mouse #4407; VH SEQ ID NO: 12, VL SEQ ID NO: 9 (antibody, V domains shown)
VH: B1 VH with S17N, S35N, S62A, S68I, D72E, D88N, A96T, R97K, A98G
VL: B2 VL with F35Y, Y48F
In the case of B3, the “EC50, flow cytometry binding” value [1] is reported as 6.91 nM, the “EC50, flow cytometry binding” value ([1]; listed as 7G9#2) is reported as 7.33 nM and the “EC50, flow cytometry binding” value ([1]; listed as 7G9#3) is reported as 5.15 nM. The EC50 [1, 5] was 5.15 nM, the EC50 [1, 6] was 5.15 nM and the “Glycan Array AcSTn” value [2] was 72%. For the same molecule, the “Glycan Array GcSTn” value [3] was 7%, the “Group (anti-STn antibody group)” value [4] was “Group 2” and the “Glycan Array STn Specificity” value [4] was 79%.

B4: 8C11: anti-STn mouse monoclonal, IgG2b κ, from mouse #4407; VH SEQ ID NO: 8, VL SEQ ID NO: 9 (antibody, V domains shown)
VH: B1 VH with S62A, S68I, A96T, R97K, A98G, V100T
VL: B2 VL with F35Y, Y48F
For B4, the “EC50, flow cytometry binding” value [1] was 7.52 nM, the “EC50, flow cytometry binding” value ([1]; listed as 8C11 Lot 111113) was 7.28 nM and the “Glycan Array AcSTn” value [2] was 75%. The “Glycan Array GcSTn” value [3] was 9%, the “Group (anti-STn antibody group)” value [4] was “Group 2” and the “Glycan Array STn Specificity” value [4] was 84%.

B5: S3F: 3F1 variable domains combined with IgG2a constant domains; heavy chain SEQ ID NO: 63, light chain SEQ ID NO: 64 (antibody)
heavy: QVQLQQSDAELVKPGASVKISCKASGYTFTDHAIHWVKQKPEQGLDWIGYISPGNGDIKYNEKFKDKVTLTADKSSSTACMHLNSLTSEDSAVYFCKRSLLALDYWGQGTTLTVSSAKTTAPSVYPLAPVCGDTTGSSVTLGCLVKGYFPEPVTLTWNSGSLSSGVHTFPAVLQSDLYTLSSSVTVTSSTWPSQSITCNVAHPASSTKVDKKIEPRGPTIKPCPPCKCPAPNLLGGPSVFIFPPKIKDVLMISLSPIVTCVVVDVSEDDPDVQISWFVNNVEVHTAQTQTHREDYNSTLRVVSALPIQHQDWMSGKEFKCKVNNKDLPAPIERTISKPKGSVRAPQVYVLPPPEEEMTKKQVTLTCMVTDFMPEDIYVEWTNNGKTELNYKNTEPVLDSDGSYFMYSKLRVEKKNWVERNSYSCSVVHEGLHNHHTTKSFSRTPGK
light: DIVMTQSHKFMSTSVGDRVSITCKASQDVGTNIAWYQQKPGRSPKVLIYSASTRHTGVPDRFTGSGSGTDFTLTISNVQSEDLTDYFCQQYSSFPLTFGVGTKLELKRADAAPTVSIFPPSSEQLTSGGASVVCFLNNFYPKDINVKWKIDGSERQNGVLNSWTDQDSKDSTYSMSSTLTLTKDEYERHNSYTCEATHKTSTSPIVKSFNRNEC
With B5 the “EC50, flow cytometry binding” value [1] was 2.051 nM and 2.13 nM and 1.94 nM, the EC50 [1, 6] was 1.06 nM and the “Glycan Array AcSTn” value [2] was 63%. For the same molecule, the “Glycan Array GcSTn” value [3] was 31% and the “Glycan Array STn Specificity” value [4] was 94%.

B6: 18C7: anti-STn mouse monoclonal, IgG2c κ, from mouse #4436; VH SEQ ID NO: 4, VL SEQ ID NO: 5 (antibody, V domains shown)
VH: QVTLKESGPGILQPSQTLSLTCSFSGFSLSTFGMGVGWIRQPSGKGLEWLAHIWWDDDKYYNPALKSRLTISKDTSKNQVFLKIANVDTADTATYYCARIAYYYGSERDYWGQGTTLTVSS
VL: QIVLTQSPAIMSASPGEKVTMTCSASSSISYMHWYHQKPGTSPKRWIYDTSKLASGVPARFSGSGSGTSYSLTISSMEAEDAATYYCHQRSSYTFGGGTKLEIKR
In the case of B6, the “EC50, flow cytometry binding” value [1] is reported as 60.35 nM, the EC50 [1, 6] is reported as 354 nM and the “mean fluorescence intensity, AcSTn” value [2, 7] is reported as “about 9,000”. For the same molecule, the “Glycan Array AcSTn” value [2] was 60%, the “mean fluorescence intensity, GcSTn” value [3, 7] was “about 3,500” and the “Glycan Array GcSTn” value [3] was 40%. The “Group (anti-STn antibody group)” value [4] was “Group 1” and the “Glycan Array STn Specificity” value [4] was 100%.
